For this test, the target named is ST2 receptor (isolated protein used in ELISA and in the fluorescence emission assay) (UniProt Q01638). In words: fluorescence emission before and after incubation with the receptor; IL-33 analogues at 50 ug/mL, fluorescence emission measured before and after incubation with ST2 at 200 ug/mL, n = 3.

On to “IL-33(6) (from UniProt O95760 1-270) (ligand)”, for which the fold increase of fluorescence emission upon receptor binding is 4 fold.

(Values after article PMC10823590.)
